Data: patent publication US20250224393A1

Target: Recombinantly expressed GPIb protein fragment of a gain-of-function mutant of the human GPIb protein (human) (UniProt P07359)
Test: latex agglutination VWF activity assay; HBR total protein up to 0.02 mg/mL in solution, comparison control

UniProt P07359, sequence (P07359 other isoform, or with tags, fused parts or gaps mutant): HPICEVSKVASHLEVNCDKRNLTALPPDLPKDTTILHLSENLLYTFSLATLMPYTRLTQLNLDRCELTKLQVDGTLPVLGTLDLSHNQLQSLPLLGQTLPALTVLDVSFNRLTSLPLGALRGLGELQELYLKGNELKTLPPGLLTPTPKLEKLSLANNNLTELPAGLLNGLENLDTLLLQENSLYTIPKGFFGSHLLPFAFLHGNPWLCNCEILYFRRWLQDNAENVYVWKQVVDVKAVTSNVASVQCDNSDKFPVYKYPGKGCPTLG

reduction of the VWF activity measured: < 2.6%
Substance: HBR-1 reagent (Heterophilic Blocking Reagent 1, Scantibodies Laboratory, Inc.) containing a mixture of mouse immunoglobulins
